Assay results: patent US20130281314A1 (Genentech, published 2013)

Biological target: T1, Wildtype ubiquitin (human, UniProt P0CG48 1-76)
T1 construct: also called wt; not shown: N-terminal 6xHis tag of the pET derivative vector
Test: biolayer interferometry, USP14catC114A on sensors, steady state fit

B1: USP14catC114A (enzyme, UniProt P54578 91-494, looked up)
chain: DMTEEQLASAMELPCGLTNLGNTAYMNATVQCIRSVPELKDALKRYAGALRASGEMASAQYITAALRDLFDSMDKTSSSIPPIILLQFLHMAFPQFAEKGEQGQYLQQDANECWIQMMRVLQQKLEAIEDDSVKETDSSSASAATPSKKKSLIDQFFGVEFETTMKCTESEEEEVTKGKENQLQLSCFINQEVKYLFTGLKLRLQEEITKQSPTLQRNALYIKSSKISRLPAYLTIQMVRFFYKEKESVNAKVLKDVKFPLMLDMYELCTPELQEKMVSFRSKFKDLEDKKVNQQPNTSDKKSSPQKEVKYEPFSFADDIGSNNCGYYDLQAVLTHQGRSSSSGHYVSWVKRKQDEWIKFDDDKVSIVTPEDILRLSGGGDWHIAYVLLYGPRRVEIMEEESEQ
modifications: monobiotinylated at the C-terminal Avi tag
notes: range 91-494; N-terminal His tag removed with TEV protease; also called catalytic domain of USP14 (residues D91-Q494) with a C114A mutation; not shown: C-terminal Avi tag
B1 gave a Kd of 100 µM.
